B1: CPEB3 Ribozyme (parent)
chain: GGGGGCCACAGCAGAAGCGUUCACGUCGCGGCCCCUGUCAGAUUCUGGUGAAUCUGCGAAUUCUGCUGU

In the data set the parent is B1. The data set is described as follows: self-cleavage, relative activity (ratio to wild type); higher = more cleavage; co-transcriptional.
For C57G A60U, the self-cleavage was 0.291.

For C57G A60G, the self-cleavage amounted to 0.294.

For C57A U64A, the self-cleavage worked out at 0.357.

Regarding C57A U64C, the self-cleavage is 0.401.

Take G56C C66A: the self-cleavage turned out to be 0.39.

Take G56C C66G: the self-cleavage is 0.517.

Consider G56C C66U, for which the self-cleavage stood at 0.748.

In the case of C57A C63G, the self-cleavage came out at 0.404.

C57A C63U: the self-cleavage was 0.408.

As to C57A C63A, the self-cleavage came out at 0.351.

As for C57A C66G, the self-cleavage was found to be 0.373.

As to C57A C66U, the self-cleavage turned out to be 0.267.

C57A C66A: the self-cleavage turned out to be 0.37.

For G58A U61A, the self-cleavage turned out to be 0.827.

As for G58A U61G, the self-cleavage was determined as 0.861.

For the variant G58A U61C, the self-cleavage amounted to 0.82.

Regarding G56U A59G, the self-cleavage is 0.909.

For U61A, the self-cleavage came out at 0.96.

In the case of G56A U67A, the self-cleavage came out at 0.927.

In the case of G56A U67C, the self-cleavage was 0.913.

Turning to G56A U67G, the self-cleavage is 0.995.

For the variant C57G U64G, the self-cleavage was determined as 0.394.

For C57G U64A, the self-cleavage came out at 0.349.

For C57G U64C, the self-cleavage was 0.38.

Regarding A60C C63G, the self-cleavage was 0.344.

Regarding A60C C63U, the self-cleavage is 0.468.

In the case of A59G U67A, the self-cleavage was 0.991.

As to A59G U67G, the self-cleavage was 1.03.

With A59G U67C, the self-cleavage was determined as 0.976.

On to A60G C63U, for which the self-cleavage amounted to 0.867.

Regarding A60G C63G, the self-cleavage was determined as 0.545.

A60G C63A: the self-cleavage came out at 0.429.

C57U G58U: the self-cleavage is 0.42.

Regarding C57U G58A, the self-cleavage turned out to be 0.289.

With C57U G58C, the self-cleavage came out at 0.451.

For the variant G58U U64C, the self-cleavage came out at 0.959.

For the variant G58U U64G, the self-cleavage worked out at 0.971.

Regarding G58U U64A, the self-cleavage came out at 0.956.

For A60U U67C, the self-cleavage came to 0.471.

On to A60U U67A, for which the self-cleavage was 0.454.

Regarding G58C C66A, the self-cleavage amounted to 0.818.

Take G58C C66G: the self-cleavage stood at 0.884.

A59G C66A: the self-cleavage was determined as 0.779.

For the variant A59G C66G, the self-cleavage worked out at 0.893.

Consider C57U A60C, for which the self-cleavage came to 0.372.

With C57U A60G, the self-cleavage was determined as 0.39.

Regarding C57U A60U, the self-cleavage was determined as 0.298.

In the case of A60C U61A, the self-cleavage worked out at 0.472.

For the variant A60C U61G, the self-cleavage came to 0.3.

Take G56A C66U: the self-cleavage was found to be 0.929.

For G56A C66G, the self-cleavage turned out to be 0.744.

Turning to A59C U69A, the self-cleavage was found to be 0.813.

Take A59C U69G: the self-cleavage turned out to be 0.824.

For the variant A59C U69C, the self-cleavage was found to be 0.934.

Take A60U U64C: the self-cleavage amounted to 0.445.

Take G56C G68U: the self-cleavage came out at 0.971.

Regarding G56C G68A, the self-cleavage amounted to 0.918.

G58U U69G: the self-cleavage came to 1.03.

On to A60U C66U, for which the self-cleavage turned out to be 0.505.

Regarding A60G G68U, the self-cleavage turned out to be 0.954.

In the case of G56A A59G, the self-cleavage is 0.649.

In the case of G56A A59U, the self-cleavage is 0.735.

With A60C U67A, the self-cleavage was determined as 0.358.

In the case of A60C U67G, the self-cleavage is 0.37.

On to A60C U67C, for which the self-cleavage is 0.313.

For the variant G58C A60G, the self-cleavage is 0.683.

Consider G58C A60C, for which the self-cleavage was 0.359.

Turning to A59G G68A, the self-cleavage amounted to 1.

Take A59G G68U: the self-cleavage is 1.02.

Consider G58C A59G, for which the self-cleavage amounted to 0.982.

With G58C A59U, the self-cleavage worked out at 0.701.

Take G58C A59C: the self-cleavage is 0.636.

G56U G65C: the self-cleavage stood at 0.506.

In the case of G58U G68A, the self-cleavage was determined as 0.993.

For G58U G68C, the self-cleavage stood at 1.03.

In the case of G58U G68U, the self-cleavage was found to be 0.966.

On to G56C U64A, for which the self-cleavage was determined as 0.504.

As for G56C U64C, the self-cleavage stood at 0.637.

Regarding A60U G65U, the self-cleavage is 0.43.

In the case of A60U G65A, the self-cleavage is 0.527.

G58C U67A: the self-cleavage is 0.988.

For G58C U67C, the self-cleavage was found to be 0.961.

As to C57U G65C, the self-cleavage worked out at 0.374.

Consider C57U G65A, for which the self-cleavage was determined as 0.357.

In the case of A59C U64A, the self-cleavage is 0.471.

Consider A59C U64G, for which the self-cleavage amounted to 0.633.

Turning to A60U U62C, the self-cleavage is 0.492.

On to A60U U62A, for which the self-cleavage came to 0.551.

Consider G56A U61A, for which the self-cleavage worked out at 0.824.

As to G56A G68A, the self-cleavage was 0.995.

For A60C U69C, the self-cleavage was found to be 0.627.

As for U61A C63A, the self-cleavage amounted to 0.729.

For G56U C63U, the self-cleavage is 0.842.

On to G56U C63G, for which the self-cleavage came out at 0.485.

On to G56U C63A, for which the self-cleavage amounted to 0.51.

Consider A59U G68C, for which the self-cleavage stood at 0.941.

With A60G G65A, the self-cleavage stood at 0.373.

Turning to A60G G65U, the self-cleavage stood at 0.412.

G56U G68U: the self-cleavage came to 0.985.

Consider C57A A60C, for which the self-cleavage amounted to 0.264.

Turning to C57A A60U, the self-cleavage was 0.415.

Regarding G56A U64A, the self-cleavage stood at 0.798.

Turning to C57A G65A, the self-cleavage came out at 0.346.

For the variant A59U U67A, the self-cleavage is 0.805.

For the variant A59U U67C, the self-cleavage came out at 0.867.

Consider G56U A60U, for which the self-cleavage was 0.293.

In the case of G56U A60G, the self-cleavage was 0.712.

In the case of G58U C66U, the self-cleavage worked out at 1.02.

In the case of G58U C66A, the self-cleavage was determined as 0.928.

With G56U U64C, the self-cleavage worked out at 0.762.

As to A60C G68U, the self-cleavage turned out to be 0.395.

For the variant A60C G68C, the self-cleavage was 0.392.

Regarding C57G U62A, the self-cleavage was 0.333.

For the variant A59C G65C, the self-cleavage was 0.374.

Turning to G56A C57A, the self-cleavage is 0.413.

Take G56A C57G: the self-cleavage turned out to be 0.306.

Turning to G56A C57U, the self-cleavage was found to be 0.308.

With C57U U64G, the self-cleavage is 0.365.

On to G58A U67C, for which the self-cleavage stood at 0.993.

For G58A U67A, the self-cleavage came out at 0.968.

With A59U U61C, the self-cleavage is 0.358.

For the variant A59U U61A, the self-cleavage stood at 0.443.

On to A59U U61G, for which the self-cleavage stood at 0.512.

For the variant A59U C63U, the self-cleavage stood at 0.734.

As to A59U C63G, the self-cleavage worked out at 0.545.

G56A A60U: the self-cleavage was 0.326.

For the variant G56A A60G, the self-cleavage stood at 0.856.

As to G56A A60C, the self-cleavage stood at 0.382.

Consider A60U U69C, for which the self-cleavage was found to be 0.754.

For A60U U69G, the self-cleavage amounted to 0.614.

Consider A59U A60U, for which the self-cleavage turned out to be 0.312.

With A59U A60G, the self-cleavage came out at 0.56.

On to A59U A60C, for which the self-cleavage amounted to 0.343.

On to A59G G65C, for which the self-cleavage turned out to be 0.512.

On to A59G G65U, for which the self-cleavage amounted to 0.694.

On to G58U U62G, for which the self-cleavage turned out to be 1.01.

For the variant G58U U62A, the self-cleavage is 0.958.

Take G58U U62C: the self-cleavage came out at 0.953.

Regarding G56U C66A, the self-cleavage turned out to be 0.447.

As to G56U U61A, the self-cleavage turned out to be 0.752.

As for C57G C66A, the self-cleavage was 0.308.

As to G56C U69A, the self-cleavage was determined as 0.874.

As to G56C U69C, the self-cleavage was determined as 1.02.

In the case of G56C U69G, the self-cleavage amounted to 0.925.

A60C U64A: the self-cleavage worked out at 0.267.

Take A60C U64G: the self-cleavage is 0.333.

With C57A U69G, the self-cleavage was found to be 0.455.

Take C57A U69A: the self-cleavage was 0.377.

On to G58C U62C, for which the self-cleavage is 0.902.

Take G58C U62A: the self-cleavage amounted to 0.918.

Regarding G58A A59U, the self-cleavage amounted to 0.592.

G58A A59C: the self-cleavage is 0.558.

Take G58A A59G: the self-cleavage was found to be 0.949.

For the variant G56C A59U, the self-cleavage came out at 0.392.

Consider G56A U69C, for which the self-cleavage was 1.04.

G56A U69G: the self-cleavage came out at 1.03.

As to C57U G68A, the self-cleavage is 0.395.

Take C57U G68U: the self-cleavage was 0.416.

Consider G58C U64C, for which the self-cleavage was 0.777.

As for G58C U64A, the self-cleavage was determined as 0.955.

Regarding C57A U61C, the self-cleavage amounted to 0.273.

For G58A C63U, the self-cleavage was 0.957.

As to G58A C63G, the self-cleavage stood at 0.757.

On to A59C U67A, for which the self-cleavage worked out at 0.689.

Take A59C U67C: the self-cleavage is 0.806.

As to C57A G58U, the self-cleavage was found to be 0.367.

With C57A G58A, the self-cleavage was 0.313.
